Data: publication PMC10830566 (2024)

Assays:
[1] = molecular target: T1, endothelial protein C receptor (EPCR), extracellular region, with a C-terminal 12xHis tag (human, UniProt Q9UNN8 18-210); test: BLI
T1 chain: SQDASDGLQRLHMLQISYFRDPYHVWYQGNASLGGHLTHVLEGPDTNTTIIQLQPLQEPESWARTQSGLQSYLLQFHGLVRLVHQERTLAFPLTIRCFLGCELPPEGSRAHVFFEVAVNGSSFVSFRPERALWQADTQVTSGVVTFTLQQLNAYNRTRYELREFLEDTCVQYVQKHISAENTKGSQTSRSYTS

[2] = molecular target: T1, endothelial protein C receptor (EPCR), …; test: BLI

B1: activated protein C (APC) (enzyme)
chain 1: ANSFLEELRHSSLERECIEEICDFEEAKEIFQNVDDTLAFWSKHVDGDQCLVLPLEHPCASLCCGHGTCIDGIGSFSCDCRSGWEGRFCQREVSFLNCSLDNGGCTHYCLEEVGWRRCSCAPGYKLGDDLLQCHPAVKFPCGRPWKRMEKKRSHL
chain 2: LIDGKMTRRGDSPWQVVLLDSKKKLACGAVLIHPSWVLTAAHCMDESKKLLVRLGEYDLRRWEKWELDLDIKEVFVHPNYSKSTTDNDIALLHLAQPATLSQTIVPICLPDSGLAERELNQAGQETLVTGWGYHSSREKEAKRNRTFVLNFIKIPVVPHNECSEVMSNMVSENMLCAGILGDRQDACEGDSGGPMVASFHGTWFLVGLVSWGEGCGLLHNYGVYTKVSRYLDWIHGHIRDKEAPQKSWAP
modifications: gamma-carboxyglutamate in the Gla domain of the light chain (incl. Gla7 = precursor 49); light and heavy chains disulfide-linked; activation peptide 200-211 and Lys-Arg 198-199 removed …; chain limits taken from the UniProt features
With B1 the Kd [1] was 67 nM and the koff [2] was 0.0021 s⁻¹.
